Assay results taken from PMC7478360.

B1: anti-thrombin DNA aptamer (structured_DNA)
DNA: CCATCTCCACTTGGTTGGTGTGGTTGG
modifications: 5' NH2-(CH2)6, amide-coupled to PBASE on graphene
B2: anti-lysozyme DNA aptamer (ssDNA)
DNA: ATCAGGGCTAAAGAGTGCAGAGTTACTTAG
modifications: 5' NH2-(CH2)6, amide-coupled to PBASE on graphene

How the values were obtained:
[1] = target: T1, thrombin (human (plasma), UniProt P00734;P00734 328-363;364-622); test: graphene FET, Dirac voltage shift
[2] = target: T1, thrombin; test: graphene FET, real-time drain current
[3] = target: T1, thrombin; test: graphene FET, Dirac voltage shift; remark: listed apart in the source

Binder	Kd [1] [nM]	Kd [2] [nM]	binding result [3]
B1	0.376	0.732	–
B2	–	–	no binding
